Test results taken from US20060188503A1.

Legend:
[1] = target: KDR receptor with a gD tag at the N-terminus, on CHO cells (UniProt P35968); assay: cell-based or functional assay
[2] = target: KDR receptor on human umbilical vein endothelial cells (HUVEC) (human) (UniProt P35968); assay: cell-based or functional assay
Chain of KDR receptor on human umbilical vein endothelial cells (HUVEC) (human) (P35968 20-1356): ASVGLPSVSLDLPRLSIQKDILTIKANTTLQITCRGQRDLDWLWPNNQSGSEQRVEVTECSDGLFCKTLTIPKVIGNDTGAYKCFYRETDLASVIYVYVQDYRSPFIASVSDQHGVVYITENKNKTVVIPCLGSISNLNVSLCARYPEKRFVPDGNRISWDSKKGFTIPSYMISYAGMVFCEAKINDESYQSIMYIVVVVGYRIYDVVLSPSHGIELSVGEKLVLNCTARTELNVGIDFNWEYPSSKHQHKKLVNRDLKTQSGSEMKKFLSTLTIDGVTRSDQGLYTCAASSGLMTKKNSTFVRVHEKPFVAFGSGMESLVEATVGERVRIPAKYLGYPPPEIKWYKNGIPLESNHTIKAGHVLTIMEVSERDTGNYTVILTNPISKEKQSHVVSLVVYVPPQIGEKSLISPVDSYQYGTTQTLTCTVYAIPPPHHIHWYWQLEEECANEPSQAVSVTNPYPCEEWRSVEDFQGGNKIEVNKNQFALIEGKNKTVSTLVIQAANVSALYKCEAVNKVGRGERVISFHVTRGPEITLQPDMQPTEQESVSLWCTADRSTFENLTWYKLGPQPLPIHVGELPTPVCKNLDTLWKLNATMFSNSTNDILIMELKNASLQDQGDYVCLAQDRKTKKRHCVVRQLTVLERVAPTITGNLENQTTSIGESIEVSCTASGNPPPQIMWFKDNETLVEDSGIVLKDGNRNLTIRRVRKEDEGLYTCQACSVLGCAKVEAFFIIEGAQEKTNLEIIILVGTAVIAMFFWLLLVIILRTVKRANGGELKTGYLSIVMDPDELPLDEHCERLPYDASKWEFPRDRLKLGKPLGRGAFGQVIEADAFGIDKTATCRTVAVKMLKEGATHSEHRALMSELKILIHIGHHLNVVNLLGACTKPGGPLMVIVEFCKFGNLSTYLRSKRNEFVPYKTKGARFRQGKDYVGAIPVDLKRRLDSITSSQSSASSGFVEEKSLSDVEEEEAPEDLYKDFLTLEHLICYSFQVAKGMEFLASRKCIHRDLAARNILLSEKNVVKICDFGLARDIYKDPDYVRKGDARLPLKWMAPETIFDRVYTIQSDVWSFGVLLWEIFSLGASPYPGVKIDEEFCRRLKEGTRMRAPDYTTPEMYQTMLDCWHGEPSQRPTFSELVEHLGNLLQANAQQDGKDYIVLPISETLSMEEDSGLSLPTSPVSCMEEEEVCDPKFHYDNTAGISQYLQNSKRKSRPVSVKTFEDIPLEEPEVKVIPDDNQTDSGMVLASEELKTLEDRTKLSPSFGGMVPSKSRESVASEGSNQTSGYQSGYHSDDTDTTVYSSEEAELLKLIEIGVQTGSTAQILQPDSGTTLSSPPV

Native VEGF (8-109) (from UniProt P15692 214-315) (ligand)
Phosphorylation-Inducing Activity (KIRA), concentration at midpoint absorbance [1]: 2 nM | Endothelial Cell Proliferation Activity (HUVEC, 3H-thymidine), concentration [2]: 0.5 nM
